The values below are quoted from earlier work in article PMC6719960.

This series deals with claudin-4 (UniProt O14493).
Sequence of UniProt O14493 (O14493 whole entry): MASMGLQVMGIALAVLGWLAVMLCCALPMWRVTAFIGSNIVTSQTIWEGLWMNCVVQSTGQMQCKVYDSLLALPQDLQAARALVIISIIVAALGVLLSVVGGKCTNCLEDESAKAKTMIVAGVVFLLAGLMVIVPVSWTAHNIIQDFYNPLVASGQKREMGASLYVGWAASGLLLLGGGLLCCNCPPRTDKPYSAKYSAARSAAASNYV

As to “C-CPE C-terminal fragment (from UniProt P01558)”, the Kd was 0.5 nM.

Broadly, the Kd is a measure of binding affinity in units of concentration.
